Measured values from PMC5415106.

Columns and labels:
[1] = target: GST-Dpb11-wild-type (budding yeast) (UniProt P47027); assay: pull-down; GST-Dpb11 pull-down of CDK-phosphorylated RPA with single-stranded DNA substituted for bubble-shaped DNA; data not shown
[2] = target: GST-Dpb11-m1,2,3,5,ΔC (budding yeast) (UniProt P47027); assay: pull-down; as the GST pull-down without DNA, but in the presence of 10 pmol bubble-shaped DNA; 10 pmol GST-Dpb11, 32P-labelled RPA; 25°C 1 h, glutathione Sepharose
Sequence of GST-Dpb11-m1,2,3,5,ΔC (budding yeast) (P47027 1-615 K463E/K469E/R538E/K549E): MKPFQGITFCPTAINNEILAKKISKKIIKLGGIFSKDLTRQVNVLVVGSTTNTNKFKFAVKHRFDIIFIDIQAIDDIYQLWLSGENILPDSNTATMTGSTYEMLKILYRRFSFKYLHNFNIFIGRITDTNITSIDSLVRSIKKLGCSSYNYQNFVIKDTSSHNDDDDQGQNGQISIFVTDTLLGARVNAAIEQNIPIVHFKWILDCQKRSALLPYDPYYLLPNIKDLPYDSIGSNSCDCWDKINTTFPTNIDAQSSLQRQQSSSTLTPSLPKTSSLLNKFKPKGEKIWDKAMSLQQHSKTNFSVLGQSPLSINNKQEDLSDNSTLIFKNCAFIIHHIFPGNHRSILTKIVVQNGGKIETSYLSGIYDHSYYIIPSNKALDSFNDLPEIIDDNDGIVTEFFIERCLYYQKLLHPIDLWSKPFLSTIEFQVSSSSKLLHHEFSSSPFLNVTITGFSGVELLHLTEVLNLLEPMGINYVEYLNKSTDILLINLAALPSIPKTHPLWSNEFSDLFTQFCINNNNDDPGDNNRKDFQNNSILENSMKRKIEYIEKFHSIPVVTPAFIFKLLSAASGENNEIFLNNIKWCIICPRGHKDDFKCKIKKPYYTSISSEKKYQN

[3] = target: GST-Dpb11-wild-type (budding yeast) (UniProt P47027); assay: as above
[4] = target: GST-Dpb11-m1,2,3,5,ΔC (budding yeast) (UniProt P47027); assay: pull-down; 10 pmol GST-tagged Dpb11 with 32P-labelled protein, no DNA; GST-binding buffer (40 mM Tris-HCl pH 7.5, 100 mM NaCl, 0.1 mM EDTA, 10% glycerol, 0.1% Triton X-100, 1 mM DTT, 0.1 mg/ml BSA), 25°C 1 h; glutathione Sepharose, two washes; SDS-PAGE and phosphorimaging
[5] = target: GST-Dpb11-wild-type (budding yeast) (UniProt P47027); assay: as above
[6] = target: Mcm2-7 complex with a PKA tag at the N-terminus of Mcm2 [modified: 32P-phosphate on the PKA tag; 32P-phosphate on the PKA tag] [budding yeast]; assay: GST pull-down, phosphorimaging; conditions: 10 pmoles GST-Dpb11, read off a plot

Sequence of GST-Dpb11-wild-type (budding yeast) (P47027 whole entry): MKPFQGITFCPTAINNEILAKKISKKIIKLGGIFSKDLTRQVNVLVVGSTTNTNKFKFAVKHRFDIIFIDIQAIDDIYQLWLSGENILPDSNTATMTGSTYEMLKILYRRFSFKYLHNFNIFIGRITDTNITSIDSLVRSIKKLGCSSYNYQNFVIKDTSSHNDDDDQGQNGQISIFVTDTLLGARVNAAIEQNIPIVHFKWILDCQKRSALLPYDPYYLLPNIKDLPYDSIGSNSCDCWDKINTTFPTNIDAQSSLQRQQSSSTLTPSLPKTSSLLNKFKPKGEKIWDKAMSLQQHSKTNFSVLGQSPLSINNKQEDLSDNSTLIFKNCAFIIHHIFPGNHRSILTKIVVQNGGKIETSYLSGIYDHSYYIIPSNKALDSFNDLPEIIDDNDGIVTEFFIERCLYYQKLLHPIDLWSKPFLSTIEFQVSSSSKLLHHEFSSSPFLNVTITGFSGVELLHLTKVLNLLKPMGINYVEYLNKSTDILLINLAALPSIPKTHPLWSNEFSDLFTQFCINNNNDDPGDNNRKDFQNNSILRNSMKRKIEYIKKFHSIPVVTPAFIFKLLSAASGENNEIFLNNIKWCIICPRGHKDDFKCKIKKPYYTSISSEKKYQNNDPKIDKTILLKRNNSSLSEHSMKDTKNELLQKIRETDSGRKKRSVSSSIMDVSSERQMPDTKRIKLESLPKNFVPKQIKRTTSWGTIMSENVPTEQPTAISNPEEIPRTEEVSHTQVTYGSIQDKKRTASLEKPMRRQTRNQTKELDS

| Substance | percent pulled down [1] [%] | percent pulled down [2] [%] | percent pulled down [3] [%] | percent pulled down [4] [%] | percent pulled down [5] [%] | response ([6]; 1 pmole Mcm2-7 input, parent: 0.26) [pmol] | response ([6]; 3 pmoles Mcm2-7 input, parent: 0.55) [pmol] | response ([6]; 10 pmoles Mcm2-7 input, parent: 1.3) [pmol] |
| --- | --- | --- | --- | --- | --- | --- | --- | --- |
| CDK-phosphorylated RPA (PKA-tagged on Rfa1) (from UniProt P22336 1-621) (complex) | 50 | 15 | 50 | 15 | 15 | – | – | – |
| PKA-RPA (not phosphorylated by CDK) (from UniProt P22336 1-621) (complex) | – | – | 15 | – | 15 | – | – | – |
| GST-Dpb11-wild-type mutant K463E; K469E; R538E; K549E [budding yeast] / Mcm2-7 complex with a PKA tag at the N-terminus of Mcm2 [modified: 32P-phosphate on the PKA tag; 32P-phosphate on the PKA tag] [budding yeast] chain 1 K463E, chain 1 K469E, chain 1 R538E, chain 1 K549E | – | – | – | – | – | 0.25 | 0.55 | 1.3 |
